From US20110092413A1, “Albumin-Fused Kunitz Domain Peptides” (Novozymes Biopharma DK A/S, priority 2002, published 2011)

Key:
Serum half-time of DX-88 = details: in vivo
[1] = DX-88 tested in the clinic for treatment of hereditary angioedema (HAE); format: in vivo, human
human plasma kallikrein = human plasma kallikrein (Homo sapiens, UniProt P03952); experiment: DX-88 inhibition of human plasma kallikrein; format: biochemical
[2] = rabbit, in vivo
Text: (§1) After radiolabeling, the two labeled protein preparations were purified from unbound label by size exclusion chromatography (SEC). Fractions from the SEC column having the highest radioactivity were pooled. The purified, radiolabeled preparations were characterized for specific activity by scintillation counting and for purity by SEC using a Superose-12 column equipped with an in-line radiation detector.
(§2) New Zealand White rabbits (ca. 2.5 Kg) were used for clearance measurements, with one animal each used for of the two labeled protein preparations. The radiolabeled preparation was injected into the animal via an ear vein. One blood sample was collected per animal per time point with early time points at approximately 0, 7, 15, 30, and 90 minutes and later time points at 4, 8, 16, 24, 48, 72, 96, 144, 168, and 192 hours. Samples (about 0.5 ml) were collected into anticoagulant (EDTA) tubes. Cells were separated from the plasma/serum fraction by centrifugation. The plasma fraction was divided into two aliquots. One plasma aliquot was stored at −70° C. and the other aliquot was kept at 4° C. for immediate analyses. Sample analyses included radiation counting for clearance rate determinations and SEC chromatography for in vivo stability.

[3] = Pharmacokinetic study in rabbits: plasma clearance of 125I-labeled protein, SEC of plasma
Text: as §1, §2

[4] = target: T1, human neutrophil elastase (Homo sapiens, UniProt P08246); details: Table 4, Biological Activity; read-out: Inhibition of human neutrophil elastase, Ki; cited from earlier work
T1 sequence (P08246 30-267): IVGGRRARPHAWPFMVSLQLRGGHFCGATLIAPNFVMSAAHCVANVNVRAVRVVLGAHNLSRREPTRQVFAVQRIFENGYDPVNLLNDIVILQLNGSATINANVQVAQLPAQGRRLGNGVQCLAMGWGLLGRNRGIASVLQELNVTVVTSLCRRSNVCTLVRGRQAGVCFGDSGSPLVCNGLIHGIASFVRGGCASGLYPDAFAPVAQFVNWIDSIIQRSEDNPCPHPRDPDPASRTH

Pseudomonas aeruginosa = details: rat model of CF, after seven days of treatment (Cantin and Woods 1999); cited from earlier work
[5] = about 840 mg BPTI, 80 open-heart surgery patients (Fraedrich et al.); cited from earlier work

Chain of human plasma kallikrein (P03952 391-638 limits assumed): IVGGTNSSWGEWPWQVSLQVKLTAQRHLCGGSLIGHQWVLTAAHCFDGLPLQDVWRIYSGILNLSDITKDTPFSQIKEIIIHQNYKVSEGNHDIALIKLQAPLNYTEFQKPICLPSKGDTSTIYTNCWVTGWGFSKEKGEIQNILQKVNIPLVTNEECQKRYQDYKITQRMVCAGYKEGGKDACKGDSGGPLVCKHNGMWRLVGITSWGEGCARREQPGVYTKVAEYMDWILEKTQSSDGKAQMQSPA
Chain of human plasma kallikrein (P03952 20-390 partner limits assumed): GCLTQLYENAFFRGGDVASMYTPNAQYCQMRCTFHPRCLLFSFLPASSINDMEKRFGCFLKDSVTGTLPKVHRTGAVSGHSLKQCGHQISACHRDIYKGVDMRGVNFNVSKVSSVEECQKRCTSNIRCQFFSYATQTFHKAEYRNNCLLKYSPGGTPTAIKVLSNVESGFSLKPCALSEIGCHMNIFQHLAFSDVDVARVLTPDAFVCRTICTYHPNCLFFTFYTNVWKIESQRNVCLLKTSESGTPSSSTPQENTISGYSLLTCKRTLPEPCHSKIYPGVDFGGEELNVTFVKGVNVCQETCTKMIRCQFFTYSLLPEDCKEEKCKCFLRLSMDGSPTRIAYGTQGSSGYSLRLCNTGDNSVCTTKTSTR

## DX-88: Kunitz domain derived from the first Kunitz domain of human LACI, inhibits human plasma kallikrein, SEQ ID NO:48 (EAMHSFCAFKADDGPCRAAHPRWFFNIFTRQCEEFIYGGCEGNQNRFESLEECKKMCTRD; Description of Sequence DX-88 Kunitz domain peptide)
Serum half-time of DX-88
  serum half-time: not more than 1 hour
[1]
  initial clinical data in HAE: safe and effective
Human plasma kallikrein
  Ki: ~0.04 nM

## DX-890: Kunitz domain peptide, inhibitor of human neutrophil elastase, SEQ ID NO:20 (EACNLPIVRGPCIAFFPRWAFDAVKGKCVLFPYGGCQGNGNKFYSEKECREYCGVP; Description of Sequence DX-890 Kunitz domain peptide)
[2]
  % α: 75%
  % β: 25%
[3]; FIG. 6
  in vivo stability by SEC analysis of plasma: relatively rapid association of label with higher molecular weight plasma components
[3]; restated in hours
  T1/2β: 2.75 h
[4]
  Ki: ~0.005 nM

## alpha1 antitrypsin
Pseudomonas aeruginosa
  bacterial counts: 0.2±0.4

## bovine pancreatic trypsin inhibitor [BPTI]
[5]
  decrease of mean amount transfused: 74%
  reduction of blood loss: almost half
